Here are results for 1 molecule from paper PMC10491584, “Structural convergence endows nuclear transport receptor Kap114p with a transcriptional repressor function toward TATA-binding protein” (Nature Communications, 2023).

The target in one assay is T1, Kap114pΔ(Y933) (S. cerevisiae, UniProt P53067 1-1004, ΔY933).
T1 construct: Kap114p, S. cerevisiae, full length with residue Y933 deleted; also called GST-Kap114p (Δ933); source: E. coli Rosetta, purified (GST resin, MonoQ, Superdex 200)
T1 sequence (looked up): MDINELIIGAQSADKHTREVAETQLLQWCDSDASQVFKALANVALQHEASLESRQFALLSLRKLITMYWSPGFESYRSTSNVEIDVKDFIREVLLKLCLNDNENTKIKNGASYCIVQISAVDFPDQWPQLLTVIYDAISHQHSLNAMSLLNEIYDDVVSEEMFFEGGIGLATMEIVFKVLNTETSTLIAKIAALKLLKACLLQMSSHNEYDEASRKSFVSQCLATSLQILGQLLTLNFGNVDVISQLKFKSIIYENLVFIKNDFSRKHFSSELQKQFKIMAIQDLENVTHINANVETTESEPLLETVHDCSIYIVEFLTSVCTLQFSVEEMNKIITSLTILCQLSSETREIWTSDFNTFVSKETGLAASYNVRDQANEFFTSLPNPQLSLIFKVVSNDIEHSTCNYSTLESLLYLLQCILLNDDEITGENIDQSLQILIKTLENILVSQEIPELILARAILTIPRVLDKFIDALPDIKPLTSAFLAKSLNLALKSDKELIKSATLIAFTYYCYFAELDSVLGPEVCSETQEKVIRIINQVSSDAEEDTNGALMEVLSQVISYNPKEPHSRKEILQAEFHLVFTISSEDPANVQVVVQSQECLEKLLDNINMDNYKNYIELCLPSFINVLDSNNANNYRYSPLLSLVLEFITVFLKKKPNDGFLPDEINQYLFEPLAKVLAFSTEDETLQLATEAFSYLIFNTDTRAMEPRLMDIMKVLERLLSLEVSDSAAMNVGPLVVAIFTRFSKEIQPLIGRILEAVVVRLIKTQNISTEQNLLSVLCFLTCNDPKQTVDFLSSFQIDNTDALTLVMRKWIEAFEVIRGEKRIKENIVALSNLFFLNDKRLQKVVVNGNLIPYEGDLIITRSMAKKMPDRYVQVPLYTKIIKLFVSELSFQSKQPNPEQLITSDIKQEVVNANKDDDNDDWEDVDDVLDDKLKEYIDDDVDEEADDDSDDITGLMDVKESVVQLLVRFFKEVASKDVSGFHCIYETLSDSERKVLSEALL
Description: ITC; MicroCal iTC200, 25 °C, 20 mM HEPES pH 7.4, 150 mM NaCl; high concentration: 50 µM wild type or mutant Kap114p in the sample cell, 500 µM wild type or mutant yTBPC in the syringe; triplicate. As to conditions: both partners purified. (In general: In ITC the heat of successive injections is recorded.)

For another assay, the target named is T2, Kap114p (Y370A) (S. cerevisiae, UniProt P53067 1-1004, Y370A).
T2 construct: Kap114p, S. cerevisiae, full length with Y370A; also called GST-Kap114p (Y370A); source: E. coli Rosetta, purified (GST resin, MonoQ, Superdex 200)
T2 sequence (looked up): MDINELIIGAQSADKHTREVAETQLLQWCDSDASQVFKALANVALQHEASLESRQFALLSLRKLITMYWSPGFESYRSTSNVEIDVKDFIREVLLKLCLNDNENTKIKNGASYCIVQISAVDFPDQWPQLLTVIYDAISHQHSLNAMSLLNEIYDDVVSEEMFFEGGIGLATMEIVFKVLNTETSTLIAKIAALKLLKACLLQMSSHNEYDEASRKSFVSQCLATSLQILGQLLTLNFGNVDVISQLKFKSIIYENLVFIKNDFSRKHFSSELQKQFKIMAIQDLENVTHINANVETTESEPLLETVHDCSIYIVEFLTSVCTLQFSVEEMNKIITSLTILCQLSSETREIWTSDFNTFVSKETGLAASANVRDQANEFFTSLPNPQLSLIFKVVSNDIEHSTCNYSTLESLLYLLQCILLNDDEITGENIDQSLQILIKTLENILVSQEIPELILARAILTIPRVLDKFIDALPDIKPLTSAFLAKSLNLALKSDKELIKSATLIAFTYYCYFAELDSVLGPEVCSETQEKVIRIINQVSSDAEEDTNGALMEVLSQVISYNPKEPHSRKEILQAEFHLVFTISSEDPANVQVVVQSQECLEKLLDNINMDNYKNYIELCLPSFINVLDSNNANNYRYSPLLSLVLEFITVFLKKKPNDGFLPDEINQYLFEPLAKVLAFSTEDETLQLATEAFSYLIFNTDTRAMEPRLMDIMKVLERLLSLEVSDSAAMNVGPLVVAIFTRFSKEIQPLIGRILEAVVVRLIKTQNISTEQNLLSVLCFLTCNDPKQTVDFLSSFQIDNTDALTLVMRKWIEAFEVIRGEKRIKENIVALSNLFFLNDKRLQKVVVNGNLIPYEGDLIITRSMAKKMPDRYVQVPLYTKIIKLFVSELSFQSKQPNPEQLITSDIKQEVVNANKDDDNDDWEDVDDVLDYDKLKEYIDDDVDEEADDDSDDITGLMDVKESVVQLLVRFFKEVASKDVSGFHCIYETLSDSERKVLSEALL
The assay is described as above. The note with it: both partners purified.

B1: yTBP^C wild type (core domain of yeast TATA-box binding protein, a.a. 61-240) (domain or fragment, S. cerevisiae, UniProt P13393 61-240, looked up)
chain: SGIVPTLQNIVATVTLGCRLDLKTVALHARNAEYNPKRFAAVIMRIREPKTTALIFASGKMVVTGAKSEDDSKLASRKYARIIQKIGFAAKFTDFKIQNIVGSCDVKFPIRLEGLAFSHGTFSSYEPELFPGLIYRMVKPKIVLLIFVSGKIVLTGAKQREEIYQAFEAIYPVLSEFRKM
notes: modified pET28a, 6xHis tag followed by a PreScission site; also called yTBPC WT; His-yTBP (61-240); source: E. coli Rosetta, purified (Ni-NTA, HiTrap SP, Superdex 75); not shown: His6, N-terminal, cleaved
What is called Kd is the equilibrium constant for the complex coming apart. A high value points to a looser complex. On to B1, for which the Kd in the assay with Kap114pΔ(Y933) was 7.7 nM; in the assay with Kap114p (Y370A) it was 20 nM.
